# Assay results from patent US20260274955A1 (JANUX THERAPEUTICS, published 2026).
# Where two headings read alike, the source gives them in different places. No end group written: not given here.
# Assays:
# [1] = target: T1, anti-CD28 scFv (SEQ ID NO: 35); experiment: BLI (Octet)
# T1 construct: also called anti-CD28 scFv wt Vh-linker-Vl; human anti-CD28 scFv
# Ab-1 [2] = target: T2, Ab-1; experiment: binding ELISA, peptide captured, Ab-1 titrated
# T2 construct: also called anti-CD28 scFv harbored in Ab-1
# Ab-1 [3] = target: T2, Ab-1; experiment: competition ELISA, peptide titrated vs 1 nM Ab-1 binding plate-bound CD28
# Ab-1 [4] = target: T2, Ab-1; experiment: BLI (Octet), peptide on sensor, Ab-1 titrated, 1:1 model
# Ab-1 [5] = target: T2, Ab-1; experiment: competition ELISA, peptide titrated vs 1 nM Ab-1 binding plate-bound CD28; remark: listed apart in the source
# Ab-1 [6] = target: T2, Ab-1; experiment: BLI (Octet), 200 nM peptide, 100 nM Ab-1;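 on t1/2: association and dissociation phases tracked in real time, with kinetics fitted to a 1:1 interaction model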
# Ab-1 [7] = target: T2, Ab-1; experiment: binding ELISA, peptide captured, Ab-1 titrated; remark: listed apart in the source
# Ab-1 [8] = target: T2, Ab-1; experiment: BLI (Octet), 20 nM peptide, 100 nM Ab-1
# Ab-1 [9] = target: T2, Ab-1; experiment: BLI (Octet), 200 nM peptide, 100 nM Ab-1; remark: listed apart in the source;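 on t1/2: association and dissociation phases tracked in real time, with kinetics fitted to a 1:1 interaction model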
# [10] = target: T3, anti-CD28 Fab (SEQ ID NOs: 202, 203); experiment: binding ELISA, peptide captured, anti-CD28 Fab titrated
# T3 construct: biotinylated when captured in the phage ELISAs
# [11] = target: T4, anti-CD28 scFv (SEQ ID NO: 35); experiment: phage binding ELISA, scFv on plate, CD28 as competitor
# T4 construct: also called anti-CD28 scFv wt Vh-linker-Vl
# Ab-1 [12] = target: T2, Ab-1; experiment: BLI (Octet), peptide on sensor, Ab-1 titrated, 1:1 model; remark: listed apart in the source
# [13] = target: T5, anti-CD28 scFv wt Vh-linker-Vl (biotinylated (site not stated)); experiment: phage ELISA on captured scFv, CD28 as competitor
# T5 construct: captured on neutravidin plates
binder,measurement,setting,value
"GYCHYWGDMVMWCG (cysteine pairing not given here; also: biotinylated, site not given here, biotinylated for capture in BLI) [Peptide-118]",binding result,[1],binds
"MDWCPRDLWVHCFA (cysteine pairing not given here; also: biotinylated, site not given here) [Peptide-1]",EC50,Ab-1 [2],4 nM
same,IC50,Ab-1 [3],200 nM
same,Kd,Ab-1 [4],15.1 nM
same,t1/2,Ab-1 [4],15.5 min
same,IC50,Ab-1 [5],60 nM
same,Octet signal,Ab-1 [6],2.03
same,t1/2,Ab-1 [6],9.8 min
same,EC50,Ab-1 [7],1 nM
same,Octet signal (20 nM peptide),Ab-1 [8],0.509
same,Octet signal (200 nM peptide),Ab-1 [9],1.8
same,EC50,[10],490 nM
IHLCHWVPWIKCSH [Phage-1664],CD28 scFv signal in presence of CD28,[11],2.51
"IDWCPRYLWDECYN (cysteine pairing not given here; also: biotinylated, site not given here) [Peptide-23]",Kd,Ab-1 [12],16 nM
same,t1/2,Ab-1 [12],9.1 min
same,IC50,Ab-1 [3],140 nM
same,EC50,Ab-1 [7],2.1 nM
same,Octet signal (200 nM peptide),Ab-1 [9],1.52
IDWCPTAGWTYCWF [Phage-1513],CD28 scFv signal in presence of CD28,[13],0.075
